Reference: publication PMC3269379, “The Host-Pathogen interaction of human cyclophilin A and HIV-1 Vpr requires specific N-terminal and novel C-terminal domains” (BMC Structural Biology, 2011)
Several values for one entry are separate records, joined by “and”; a condition that tells them apart may be missing. Equal values may be shown once.

B1: Vpr^75-90 (peptide)
peptide: GCRHSRIGVTRQRRAR
notes: HIV-1 Vpr residues 75-90; source: synthetic peptide
B2: full-length synthetic HIV-1 Vpr (Vpr^1-96) (natural protein)
chain: MEQAPEDQGPQREPYNEWTLELLEELKSEAVRHFPRIWLHNLGQHIYETYGDTWAGVEAIIRILQQLLFIHFRIGCRHSRIGVTRQRRARNGASRS

How the values were obtained:
Details in all cases: both partners purified
human cyclophilin A [1] = biological target: T1, human cyclophilin A (human, UniProt P62937 1-165); assay: SPR
T1 construct: also called CypA; peptidyl prolyl isomerase cyclophilin A; source: recombinant, highly pure; production and purification described previously [14]

human cyclophilin A [2] = biological target: T1, human cyclophilin A; assay: SPR; remark: listed apart in the source
human cyclophilin A [3] = biological target: T1, human cyclophilin A; assay: ITC

T1 sequence (P62937 whole entry): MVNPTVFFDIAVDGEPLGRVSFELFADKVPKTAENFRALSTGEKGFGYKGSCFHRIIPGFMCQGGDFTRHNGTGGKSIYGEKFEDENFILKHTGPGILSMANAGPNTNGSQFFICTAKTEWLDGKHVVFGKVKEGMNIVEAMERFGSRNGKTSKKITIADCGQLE

Row | Binder | binding result (human cyclophilin A [1]) | Kd (human cyclophilin A [2]) | koff (human cyclophilin A [2]) | kon (human cyclophilin A [2]) | Ka (human cyclophilin A [3]) | Kd (human cyclophilin A [3]) | dH (human cyclophilin A [3]) | stoichiometry N (human cyclophilin A [3])
1 | AVRHFPRIWLH [Vpr^30-40] | binds | – | – | – | – | – | – | –
2 | B1 | – | 280 nM | 0.0063 s⁻¹ | 81000 M⁻¹ s⁻¹ | 9e+06 M⁻¹ and 1.7e+07 M⁻¹ | 120 nM and 60 nM | -17.4 kcal/mol and -16.5 kcal/mol | 0.98 and 1
3 | GCRHSAIGVTRQRRAR (source: synthetic peptide) [Vpr^75-90 (R80A)] | – | 7500 nM | 0.027 s⁻¹ | 3800 M⁻¹ s⁻¹ | – | – | – | –
4 | B2 | – | 310 nM and 320 nM | 0.007 s⁻¹ and 0.00422 s⁻¹ | 32000 M⁻¹ s⁻¹ and 16000 M⁻¹ s⁻¹ | – | – | – | –
